For four molecules, binding result and EC50 results are on record in patent US20200010567A1 (NEURIMMUNE, published 2020).

The target of one assay is T1, PA3: H-(PA)3HHHHHH-NH2.
T1 peptide: H-PAPAPAHHHHHH-NH2
Briefly: indirect ELISA, His-tagged peptide coated at 50 ug/ml, antibody titrated [also D00028 FIG. 7P]. On the procedure:
(§1) 96-well microplates (Corning Incorporated, Corning, USA) were coated with dipeptide repeat protein peptides at a concentration of 50 μg/ml in coating buffer (15 mM Na₂CO₃, 35 mM NaHCO₃, pH 9.42). Non-specific binding sites were blocked for 1 h at room temperature with PBS/0.1% Tween®-20 containing 2% BSA (Sigma-Aldrich, Buchs, Switzerland). Primary antibodies were diluted to the indicated concentrations and incubated 1 h at room temperature, followed by incubation with a donkey anti-human IgG Fcγ-specific antibody conjugated with HRP (Jackson ImmunoResearch Laboratories, Inc., West Grove, USA). Binding was determined by measurement of HRP activity in a standard colorimetric assay. EC₅₀ values were estimated by non-linear regression using GraphPad Prism software (San Diego, USA).
(§2) High affinity binding was detected for poly-GA DPRs harboring 10 or 20 (GA)-repeats, reflected in an EC₅₀ in the subnanomolar or low nanomolar range (FIGS. 7A, 7C-7I).

In a further assay the target is T2, PA2: H-(PA)2HHHHHH-NH2.
T2 peptide: H-PAPAHHHHHH-NH2
The description is as above. On the procedure: as §1, §2

For the next assay, the target named is T3, PA4: H-(PA)4HHHHHH-NH2.
T3 peptide: H-PAPAPAPAHHHHHH-NH2
The assay is described as above. On the procedure:
as §1, §2

Assay [1] deals with T4, monomeric C9orf72 (GA)20 DPR protein peptide preparation (C-terminal amide).
T4 construct: also called monomeric (GA)20
T4 peptide: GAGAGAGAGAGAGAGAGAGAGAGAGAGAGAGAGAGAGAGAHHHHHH
In words: indirect ELISA, coated preparation 5 ug/ml. On the procedure: as §1, with “monomeric and aggregated (GA)₂₀ DPR” for “dipeptide repeat”, “peptide preparations” for “peptides”, “5” for “50”

In assay [2] the target is T5, aggregated C9orf72 (GA)20 DPR protein peptide preparation (C-terminal amide).
T5 construct: also called aggregated (GA)20; amyloid-fibril like aggregated (GA)20
T5 peptide: T4 peptide
Briefly: indirect ELISA, coated preparation 5 ug/ml. On the procedure:
as §1, with “monomeric and aggregated (GA)₂₀ DPR” for “dipeptide repeat”, “peptide preparations” for “peptides”, “5” for “50”

A further assay concerns the target T6, (GR)15: H-C(GR)15-OH.
T6 construct: synthetic, not coupled to BSA; also called poly-GR DPR protein peptide
T6 peptide: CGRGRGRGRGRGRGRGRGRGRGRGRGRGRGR
In words: indirect ELISA, uncoupled peptide coated, antibody titrated [also D00014 FIG. 3I]. On the procedure:
as §1, with “In brief, dipeptide repeat proteins were synthesized and purified by Schafer-N(Copenhagen, Denmark): (GA)₁₅: H-CHHHHHH(GA)₁₅-OH; (GP)₁₅: H-C(GP)₁₅-OH; (GR)₁₅: H-C(GR)₁₅-OH; (PA)₁₅: H-C(PA)₁₅-OH; (PR)₁₅: H—C(PR)₁₅-OH. DPR protein peptides were then conjugated via a bifunctional linker (SMCC) to bovine serum albumin (BSA). 96-well microplates” for “96-well microplates”, “coated with BSA-coupled or -uncoupled dipeptide repeat” for “coated with dipeptide repeat”, “concentration of either 5 μg/ml or 20 μg/ml in” for “concentration of 50 μg/ml in”

The target in assay [3] is T7, BSA-coupled (GA)15 DPR protein peptide (bovine, conjugated via a bifunctional linker (SMCC) to bovine serum albumin).
T7 construct: also called BSA-(GA)15
T7 sequence (peptide, as listed by the source limits assumed, chain 1 of 2): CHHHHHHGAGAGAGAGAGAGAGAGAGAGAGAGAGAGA
T7 sequence (P02769 25-607 limits assumed, chain 2 of 2): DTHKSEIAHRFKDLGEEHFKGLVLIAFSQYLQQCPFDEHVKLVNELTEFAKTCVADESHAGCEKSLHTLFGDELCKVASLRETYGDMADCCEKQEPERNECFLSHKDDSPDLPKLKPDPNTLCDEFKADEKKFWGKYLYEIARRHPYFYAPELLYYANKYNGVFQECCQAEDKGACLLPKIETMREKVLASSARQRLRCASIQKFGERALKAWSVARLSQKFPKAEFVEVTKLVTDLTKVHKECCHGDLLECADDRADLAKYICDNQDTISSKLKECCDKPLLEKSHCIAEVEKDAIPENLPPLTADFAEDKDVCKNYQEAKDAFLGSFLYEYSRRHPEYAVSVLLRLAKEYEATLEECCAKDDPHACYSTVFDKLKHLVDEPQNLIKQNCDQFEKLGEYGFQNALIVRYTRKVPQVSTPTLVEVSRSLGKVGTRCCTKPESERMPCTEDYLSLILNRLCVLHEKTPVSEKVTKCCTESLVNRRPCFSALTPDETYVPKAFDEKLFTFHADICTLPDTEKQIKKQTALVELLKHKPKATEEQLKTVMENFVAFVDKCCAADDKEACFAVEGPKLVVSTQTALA
In words: indirect ELISA, BSA-coupled peptide coated, antibody titrated [also D00012 FIG. 3B]. On the procedure: as §1, with “In brief, dipeptide repeat proteins were synthesized and purified by Schafer-N(Copenhagen, Denmark): (GA)₁₅: H-CHHHHHH(GA)₁₅-OH; (GP)₁₅: H-C(GP)₁₅-OH; (GR)₁₅: H-C(GR)₁₅-OH; (PA)₁₅: H-C(PA)₁₅-OH; (PR)₁₅: H—C(PR)₁₅-OH. DPR protein peptides were then conjugated via a bifunctional linker (SMCC) to bovine serum albumin (BSA). 96-well microplates” for “96-well microplates”, “coated with BSA-coupled or -uncoupled dipeptide repeat” for “coated with dipeptide repeat”, “concentration of either 5 μg/ml or 20 μg/ml in” for “concentration of 50 μg/ml in”

B1: NI-308.4M1 (antibody, V domains shown)
VH: EVQLVETGGGVVQPGGSLRLSCEASGFTIGTYAMHWVRQFPGKGLDWVAVISFDGTTEYYTDAVKGRFTISRDNAKNTLYLQMNYLRGDDTAIYFCARDFTSSGETGSWTQVPDLWGQGTLVTVSS
VL: CEIVMTQSPATLSLSPGERATLSCRASQSVTKYLAWYQQKPGQAPRLLIYDVSYRAAGTPARFSGSGSGTDFTLTISSLEPEDFAVYYCHQRSSWPPVTFGGGTKVEIK
notes: Recombinant complete human IgG1, kappa
As to B1, the binding result with PA3: H-(PA)3HHHHHH-NH2, with PA2: H-(PA)2HHHHHH-NH2 and with PA4: H-(PA)4HHHHHH-NH2 was “no binding (tested: about 4x10^5 pM (last point))” each time.

B2: NI-308.15O7 (antibody, V domains shown)
VH: QVQLVESGGGVVQPGRSLRLSCAASGFTFSNHAMHWVRQAPGKGLEWVAVISYDGENTYYADSIEGRFTISRDNFKNTLFLQMYSLTADDTAMYFCARGGRRGHFTSYYLDYWGQGTLVTVSS
VL: CDIQMTQSPSSLSASVGDRVTITCRASQNIDKYLNWYQQIPGKAPKLLIYAASSLHSGVPSRFSGSGSGTDFSLTISSLQPEDFAIYYCQQSYSSFRTFGQGTKLEIK
Take B2: the EC50 was found to be 530 pM in assay [1] and 780 pM in assay [2].

B3: NI-308.6B11 (antibody, V domains shown)
VH: EVQLVQSGAEVKRPGASVKVSCKVSGYTLTELSMHWVRQAPGKGLEWMGGFDPEDGETVYAQKFQGRVTMTEDTSTDTAYMELSSLRSEDTALYHCATYGSSWHWNEGNEGSYYFDYWGQGTLVTVSS
VL: CDIQMTQSPSSLSASVGDRVTITCQASQDISIYLNWYQQKPGKAPKLLIYDASNLETGVPSRFSGSGSGTDFTFTISGLQPEDVARYYCQQYDDLPITFGQGTRLEIK
notes: as for B1
Regarding B3, the midpoint of the response with (GR)15: H-C(GR)15-OH, the EC50, lay at 1300 pM.

B4: NI-308.18F7 (antibody, V domains shown)
VH: QVQLQESGPGLVKPSETLSVTCTVSGGSINDYYWNWIRQPAGKGLEWIGRIYASGTINYNPSLQSRVTMSIDTSKNQFSLDLISVSAADTAVYYCARWGQVVGDYYYGMDVWGQGTTVTVSS
VL: EIVLTQSPLSLSVTPGEPASISCKSSQSLQHTNGYNYLDWYLLKPGQSPQLLIFLTSNRASGVPDRFSGSGSGTNFTLKISRVEAEDVGVYYCMEGIQLWTFGQGTKLEIK
notes: as for B1
Regarding B4, the EC50 in assay [3] came out at 110 pM; in assay [1], 870 pM; in assay [2], 890 pM.
